Data published in patent US20180244743A1.

Assays:
[1] = biological target: human insulin receptor, B isoform (human) (UniProt P06213); assay: SPA competition with [125I-A14Y]-human insulin, membrane-associated hIR-B, 0.1% HSA (Ex 26)
[2] = biological target: human insulin receptor, A isoform (human) (UniProt P06213); assay: SPA competition with [125I-A14Y]-human insulin, solubilised hIR-A, […] HSA (Ex 25)
[3] = biological target: human insulin receptor, A isoform (human) (UniProt P06213); assay: SPA competition with [125I-A14Y]-human insulin, solubilised hIR-A, 0% HSA (Ex 25)
[4] = biological target: human insulin receptor, A isoform (human) (UniProt P06213); assay: SPA competition with [125I-A14Y]-human insulin, membrane-associated hIR-A, 0.1% HSA (Ex 26)
[5] = biological target: human insulin-like growth factor 1 receptor (human) (UniProt P08069); assay: SPA competition with [125I-Tyr31]-human IGF-1, membrane-associated hIGF-1R, 0.1% HSA (Ex 26)

Row | Substance | relative binding affinity (% rel to HI) [1] | relative binding affinity (% rel to HI) [2] | relative binding affinity (% rel to HI) [3] | relative binding affinity (% rel to HI) [4] | relative binding affinity (% rel to HI) [5]
1 | A21A, B3E, desB27, B29K(N(eps)tetradecanedioyl-gGlu-2×OEG), desB30 human insulin (ligand) | 49.6 % rel to HI | 22.3 % rel to HI | 63.4 % rel to HI | 52.1 % rel to HI | 
2 | A14E, A21A, B3Q, desB27, B29K(N(eps)tetradecanedioyl-4×gGlu), desB30 human insulin (ligand) | 36.8 % rel to HI | 37.4 % rel to HI | 63.8 % rel to HI | 31 % rel to HI | 
3 | B3Q, desB27, B29K(N(eps)tetradecanedioyl-4×gGlu), desB30 human insulin (from UniProt P01308 90-110) (ligand) |  |  |  |  | 4.1 % rel to HI
4 | A21A, B3Q, desB27, B29K(N(eps)tetradecanedioyl-gGlu-2×OEG), desB30 human insulin (ligand) | 48.8 % rel to HI | 32 % rel to HI | 87.7 % rel to HI | 63.8 % rel to HI | 
5 | A8H, A21A, B3E, desB27, B29K(N(eps)tetradecanedioyl-gGlu-2×OEG), desB30 human insulin (ligand) | 81.9 % rel to HI | 82.3 % rel to HI | 225 % rel to HI | 83.7 % rel to HI | 
6 | A8R, B3E, desB27, B29K(N(eps)tetradecanedioyl-gGlu-2×OEG), desB30 human insulin (ligand) | 67.9 % rel to HI | 45.5 % rel to HI | 103 % rel to HI | 61.3 % rel to HI | 
7 | A21G, B3E, desB27, B29K(N(eps)tetradecanedioyl-gGlu-2×OEG), desB30 human insulin (ligand) | 29 % rel to HI | 9.2 % rel to HI | 23.8 % rel to HI | 28.9 % rel to HI | 
8 | A21A, B3Q, desB27, B29K(N(eps)tetradecanedioyl-4×gGlu), desB30 human insulin (ligand) | 62.9 % rel to HI | 42.4 % rel to HI | 104 % rel to HI | 49.4 % rel to HI | 
9 | A8H, A21A, B3E, desB27, B29K(N(eps)tetradecanedioyl-4×gGlu), desB30 human insulin (ligand) | 124 % rel to HI | 135 % rel to HI | 253 % rel to HI | 88.5 % rel to HI | 
10 | A21A, B3Q, desB27, B29K(N(eps)hexadecanedioyl-4×gGlu), desB30 human insulin (ligand) | 15.4 % rel to HI | 8.2 % rel to HI | 99.5 % rel to HI | 14.1 % rel to HI | 
11 | A21A, B3E, desB27, B29K(N(eps)hexadecanedioyl-4×gGlu), desB30 human insulin (ligand) | 15 % rel to HI | 6.2 % rel to HI | 69 % rel to HI | 14.2 % rel to HI | 
12 | A21A, B3Q, desB27, B29K(N(eps)hexadecanedioyl-gGlu-2×OEG), desB30 human insulin (ligand) | 14.6 % rel to HI | 5.6 % rel to HI | 76.9 % rel to HI | 15.8 % rel to HI | 
13 | A21A, B3E, desB27, B29K(N(eps)tetradecanedioyl-4×gGlu), desB30 human insulin (ligand) | 42.3 % rel to HI | 32.3 % rel to HI | 70.5 % rel to HI | 40.5 % rel to HI | 
14 | A8H, A21G, B3E, desB27, B29K(N(eps)tetradecanedioyl-gGlu-2×OEG), desB30 human insulin (ligand) | 90.2 % rel to HI | 42.4 % rel to HI | 100 % rel to HI | 89.6 % rel to HI | 
15 | A8H, B3E, desB27, B29K(N(eps)tetradecanedioyl-gGlu-2×OEG), desB30 human insulin (ligand) | 82.1 % rel to HI | 70.5 % rel to HI | 172 % rel to HI | 84.1 % rel to HI | 
16 | A21A, B3E, desB27, B29K(N(eps)hexadecanedioyl-gGlu-2×OEG), desB30 human insulin (ligand) | 13.2 % rel to HI | 3.6 % rel to HI |  | 14.3 % rel to HI | 0.1 % rel to HI
